Here are results for five molecules from US20180155450A1 (Sanofi, published 2018).

For experiment [1], the target named is T1, recombinant human IL4 (human, UniProt P05112 25-153).
T1 construct: also called Antigen1
T1 sequence (looked up): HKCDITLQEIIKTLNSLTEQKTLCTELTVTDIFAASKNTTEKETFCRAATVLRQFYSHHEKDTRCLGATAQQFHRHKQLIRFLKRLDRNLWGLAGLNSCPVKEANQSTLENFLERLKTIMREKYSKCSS
Briefly: kinetic table drawn in the figure; assay not named in Example 9, parental rows equal the BIACORE values of Table 6. In general terms: In SPR one partner is held on a chip, and binding of the other changes the refractive index at the surface.

In experiment [2] the target is T2, recombinant human IL4 (human, UniProt P05112 25-153).
T2 sequence (looked up): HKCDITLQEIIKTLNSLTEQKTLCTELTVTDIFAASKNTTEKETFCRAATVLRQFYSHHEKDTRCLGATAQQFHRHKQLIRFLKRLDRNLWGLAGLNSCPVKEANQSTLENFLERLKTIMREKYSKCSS
Briefly: cell-based or functional assay.

For experiment [3], the target named is recombinant human IL13 (human, UniProt P35225 35-146, limits assumed). Briefly: cell-based or functional assay.
Target sequence in this assay (P35225 35-146 limits assumed): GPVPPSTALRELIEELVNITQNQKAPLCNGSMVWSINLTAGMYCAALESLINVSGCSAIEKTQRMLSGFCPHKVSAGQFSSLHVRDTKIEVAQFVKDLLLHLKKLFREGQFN
Experiment [4] has as its target T3, recombinant human IL13 (human, UniProt P35225 35-146, limits assumed).
T3 construct: also called Antigen2
As to the kind of experiment: SPR, Biacore 3000; CODV-Ig captured by anti-human Fc, antigen as analyte.
T3 sequence (P35225 35-146 limits assumed): as above
Description: (§1) Kinetic binding analysis by Biacore was performed as follows. Surface plasmon resonance technology on a Biacore 3000 (GE Healthcare) was used for detailed kinetic characterization of purified antibodies. […] Chip surfaces were regenerated with 10 mM glycine pH 2.5. Kinetic parameters were analyzed and calculated in the BIAevaluation program package v4.1 using a flow cell without captured antibody as a reference.

The target of experiment [5] is T1, recombinant human IL4. The experiment is described as above.
Description: as §1
The target of experiment [6] is T2, recombinant human IL4. As to the kind of experiment: SPR (Biacore 3000), antibody captured, antigen as analyte.
Description: as §1

B1: TBTI/DVD-Ig molecule incorporating anti-IL4 and anti-IL13 sequences (FIG. 7, upper panel) (bispecific antibody)
heavy: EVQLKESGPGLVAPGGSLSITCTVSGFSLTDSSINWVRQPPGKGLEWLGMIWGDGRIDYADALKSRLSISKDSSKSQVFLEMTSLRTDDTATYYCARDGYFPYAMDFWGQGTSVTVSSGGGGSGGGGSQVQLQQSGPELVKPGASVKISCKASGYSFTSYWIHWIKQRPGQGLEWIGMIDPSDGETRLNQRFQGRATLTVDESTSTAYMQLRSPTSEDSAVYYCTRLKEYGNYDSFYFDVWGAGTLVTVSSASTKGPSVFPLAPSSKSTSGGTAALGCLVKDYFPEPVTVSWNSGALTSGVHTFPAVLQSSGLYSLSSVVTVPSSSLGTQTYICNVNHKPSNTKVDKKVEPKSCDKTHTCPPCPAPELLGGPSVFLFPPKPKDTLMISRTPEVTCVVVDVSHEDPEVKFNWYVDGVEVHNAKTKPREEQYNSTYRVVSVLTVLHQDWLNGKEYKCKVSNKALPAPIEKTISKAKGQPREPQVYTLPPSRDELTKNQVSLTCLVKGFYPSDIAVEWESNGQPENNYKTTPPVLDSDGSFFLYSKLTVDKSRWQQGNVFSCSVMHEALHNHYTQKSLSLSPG
light: DIVLTQSPASLAVSLGQRATISCRASESVDSYGQSYMHWYQQKAGQPPKLLIYLASNLESGVPARFSGSGSRTDFTLTIDPVQAEDAATYYCQQNAEDSRTFGGGTKLEIKGGGGSGGGGSDIQMTQSPASLSVSVGDTITLTCHASQNIDVWLSWFQQKPGNIPKLLIYKASNLHTGVPSRFSGSGSGTGFTLTISSLQPEDIATYYCQQAHSYPFTFGGGTKLEIKRTVAAPSVFIFPPSDEQLKSGTASVVCLLNNFYPREAKVQWKVDNALQSGNSQESVTEQDSKDSTYSLSSTLTLSKADYEKHKVYACEVTHQGLSSPVTKSFNRGEC
notes: also called TBTI/DVD-Ig format
In the case of B1, in the experiment with recombinant human IL4 [1], the Kd stood at 0.0263 nM, the koff was found to be 0.00015 s⁻¹ and the kon worked out at 5.7e+06 M⁻¹ s⁻¹.

B2: CODV-Ig Batch ID 601 (Batch ID 204 with P344C & A432C in IGHG1) (bispecific antibody, human IgG1, kappa)
heavy: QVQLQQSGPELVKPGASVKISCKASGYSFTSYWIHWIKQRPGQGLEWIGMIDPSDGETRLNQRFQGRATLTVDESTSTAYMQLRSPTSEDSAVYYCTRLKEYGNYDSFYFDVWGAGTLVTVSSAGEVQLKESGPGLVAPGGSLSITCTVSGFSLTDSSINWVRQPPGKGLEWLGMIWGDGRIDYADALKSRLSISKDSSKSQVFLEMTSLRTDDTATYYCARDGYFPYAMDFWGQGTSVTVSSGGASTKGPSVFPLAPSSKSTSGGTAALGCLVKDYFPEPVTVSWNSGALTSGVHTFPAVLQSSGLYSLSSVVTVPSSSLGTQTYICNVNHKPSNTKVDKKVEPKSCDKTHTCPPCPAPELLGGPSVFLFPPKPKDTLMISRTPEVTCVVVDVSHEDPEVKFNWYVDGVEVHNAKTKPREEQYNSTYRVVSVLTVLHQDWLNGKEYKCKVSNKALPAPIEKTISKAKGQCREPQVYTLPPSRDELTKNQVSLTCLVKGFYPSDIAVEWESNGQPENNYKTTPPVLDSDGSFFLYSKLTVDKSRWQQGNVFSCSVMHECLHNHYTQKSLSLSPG
light: DIVLTQSPASLAVSLGQRATISCRASESVDSYGQSYMHWYQQKAGQPPKLLIYLASNLESGVPARFSGSGSRTDFTLTIDPVQAEDAATYYCQQNAEDSRTFGGGTKLEIKGGGGGGGDIQMTQSPASLSVSVGDTITLTCHASQNIDVWLSWFQQKPGNIPKLLIYKASNLHTGVPSRFSGSGSGTGFTLTISSLQPEDIATYYCQQAHSYPFTFGGGTKLEIKRGGGGGRTVAAPSVFIFPPSDEQLKSGTASVVCLLNNFYPREAKVQWKVDNALQSGNSQESVTEQDSKDSTYSLSSTLTLSKADYEKHKVYACEVTHQGLSSPVTKSFNRGEC
For B2, in the experiment with recombinant human IL4 [2], the “IC50 Cellular Assay IL4 [nM] (HEK-Blue IL-4/IL-13 reporter cells, SEAP)” value worked out at 0.032 nM. Further, in the experiment with recombinant human IL13 [3], the “IC50 Cellular Assay IL13 [nM] (HEK-Blue IL-4/IL-13 reporter cells, SEAP)” value worked out at 1.7 nM.

B3: CODV-Ig Batch ID 130 (IL4 × IL13 on LC; L1=1, L2=4, L3=2, L4=4) (bispecific antibody)
chain 1: not shown
chain 2: DIQMTQSPASLSVSVGDTITLTCHASQNIDVWLSWFQQKPGNIPKLLIYKASNLHTGVPSRFSGSGSGTGFTLTISSLQPEDIATYYCQQAHSYPFTFGGGTKLEIKGDIVLTQSPASLAVSLGQRATISCRASESVDSYGQSYMHWYQQKAGQPPKLLIYLASNLESGVPARFSGSGSRTDFTLTIDPVQAEDAATYYCQQNAEDSRTFGGGTKLEIKGGGGRTVAAPSVFIFPPSDEQLKSGTASVVCLLNNFYPREAKVQWKVDNALQSGNSQESVTEQDSKDSTYSLSSTLTLSKADYEKHKVYACEVTHQGLSSPVTKSFNRGEC
Turning to B3, the results for the Kd with recombinant human IL13 [4] and with recombinant human IL4 [5] were 0.057 nM and 0.004 nM, respectively.

B4: CODV-Ig Batch ID 129 (IL4 × IL13 on LC; L1=1, L2=3, L3=2, L4=4) (bispecific antibody)
chain 1: not shown
chain 2: DIQMTQSPASLSVSVGDTITLTCHASQNIDVWLSWFQQKPGNIPKLLIYKASNLHTGVPSRFSGSGSGTGFTLTISSLQPEDIATYYCQQAHSYPFTFGGGTKLEIKGDIVLTQSPASLAVSLGQRATISCRASESVDSYGQSYMHWYQQKAGQPPKLLIYLASNLESGVPARFSGSGSRTDFTLTIDPVQAEDAATYYCQQNAEDSRTFGGGTKLEIKGGGRTVAAPSVFIFPPSDEQLKSGTASVVCLLNNFYPREAKVQWKVDNALQSGNSQESVTEQDSKDSTYSLSSTLTLSKADYEKHKVYACEVTHQGLSSPVTKSFNRGEC
For the molecule B4, the Kd in the experiment with recombinant human IL13 [4] amounted to 0.07 nM; in the experiment with recombinant human IL4 [5], 0.005 nM.

B5: CODV-Ig Batch ID 602 (Batch ID 204 with S376C & P397C in IGHG1) (bispecific antibody)
heavy: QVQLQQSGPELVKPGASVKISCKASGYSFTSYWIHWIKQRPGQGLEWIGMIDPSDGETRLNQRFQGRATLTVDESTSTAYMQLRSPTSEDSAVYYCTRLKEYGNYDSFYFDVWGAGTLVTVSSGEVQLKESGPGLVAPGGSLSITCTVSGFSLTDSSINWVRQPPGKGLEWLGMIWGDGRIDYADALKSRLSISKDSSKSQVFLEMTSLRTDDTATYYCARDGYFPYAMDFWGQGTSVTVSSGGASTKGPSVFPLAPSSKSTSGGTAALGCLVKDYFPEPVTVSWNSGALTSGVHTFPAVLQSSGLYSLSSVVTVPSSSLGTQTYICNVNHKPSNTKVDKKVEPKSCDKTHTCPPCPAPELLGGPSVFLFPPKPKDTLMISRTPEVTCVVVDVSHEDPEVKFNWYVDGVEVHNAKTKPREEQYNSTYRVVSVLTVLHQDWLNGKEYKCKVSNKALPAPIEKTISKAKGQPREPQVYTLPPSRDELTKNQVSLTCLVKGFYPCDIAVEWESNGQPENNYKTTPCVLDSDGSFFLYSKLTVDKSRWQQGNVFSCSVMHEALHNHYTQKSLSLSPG
light: DIVLTQSPASLAVSLGQRATISCRASESVDSYGQSYMHWYQQKAGQPPKLLIYLASNLESGVPARFSGSGSRTDFTLTIDPVQAEDAATYYCQQNAEDSRTFGGGTKLEIKGGGGGGGDIQMTQSPASLSVSVGDTITLTCHASQNIDVWLSWFQQKPGNIPKLLIYKASNLHTGVPSRFSGSGSGTGFTLTISSLQPEDIATYYCQQAHSYPFTFGGGTKLEIKGGGGGRTVAAPSVFIFPPSDEQLKSGTASVVCLLNNFYPREAKVQWKVDNALQSGNSQESVTEQDSKDSTYSLSSTLTLSKADYEKHKVYACEVTHQGLSSPVTKSFNRGEC
modifications: Engineered cysteine pair in CH3 (intended intradomain disulfide C376-C397, patent's count).
notes: The mutation numbers are those of the column 'Introduced Mutations IGHG1'
On to B5, for which the equilibrium dissociation constant (Kd) with recombinant human IL4 [6] is 0.01 nM. The “IC50 Cellular Assay IL4 [nM] (HEK-Blue IL-4/IL-13 reporter cells, SEAP)” value in the experiment with recombinant human IL4 [2] was determined as 0.034 nM.

Broadly, the Kd is a measure of binding affinity in units of concentration. As usually defined, the koff is the rate constant with which the complex falls apart. By kon is commonly meant the rate constant with which the complex forms.
